Measurements published in patent publication US10081665B2, “Peptides and combination of peptides for use in immunotherapy against various tumors” (immatics biotechnologies GmbH, priority 2015, dated 2018).

molecular target: HLA-A*02:01 (Homo sapiens, UniProt P04439, D140Y/D185E/D98H/E176V/E277Q/G131W/G231S/I119V/I121R/I166T/I218V/L300P/L318F/N151K/N90K/P208A/P217A/Q86G/Q94H/R138H/R169H/T345S); experiment: MHC binding assay (UV-ligand exchange, beta2m ELISA); conditions: binding to HLA-A*02:01, β2m ELISA
How it was run: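 Peptide-MHC complexes made by UV-ligand exchange of a UV-cleavable peptide for test peptide; exchange yield measured by β2m ELISA on streptavidin-coated plates with samples diluted 100-fold, HRP anti-β2m and TMB read at 450 nm. Refolded HLA-A*02:01/MLA-001 monomers (15-500 ng/ml) served as standards.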

Substance	Peptide exchange (MHC class I binding score, peptide exchange yield)
181 (LLWAPTAQA; listed as Homo sapiens) [compound 181]	+++ (≥50 = +++)
182 (GLQDGFQITV; listed as Homo sapiens) [compound 182]	+++ (≥50 = +++)
184 (ALDSTIAHL; listed as Homo sapiens) [compound 184]	++ (≥20% = ++)
185 (TLYQGLPAEV; listed as Homo sapiens) [compound 185]	++ (≥20% = ++)
187 (SILKEDPFL; listed as Homo sapiens) [compound 187]	++ (≥20% = ++)
188 (VLGEEQEGV; listed as Homo sapiens) [compound 188]	++ (≥20% = ++)
190 (SLSTELFKV; listed as Homo sapiens) [compound 190]	+++ (≥50 = +++)
191 (AAIEIFEKV; listed as Homo sapiens) [compound 191]	+++ (≥50 = +++)
192 (TLLPSSGLVTL; listed as Homo sapiens) [compound 192]	++ (≥20% = ++)
193 (ALFHMNILL; listed as Homo sapiens) [compound 193]	+++ (≥50 = +++)
194 (KLLEEVQLL; listed as Homo sapiens) [compound 194]	++ (≥20% = ++)
195 (VIIQNLPAL; listed as Homo sapiens) [compound 195]	+++ (≥50 = +++)
198 (ILTNKVVSV; listed as Homo sapiens) [compound 198]	++ (≥20% = ++)
199 (SVADLAHVL; listed as Homo sapiens) [compound 199]	++ (≥20% = ++)
200 (IMPTFDLTKV; listed as Homo sapiens) [compound 200]	+++ (≥50 = +++)
204 (SEWGSPHAAVP; listed as Homo sapiens) [compound 204]	+++ (≥50 = +++)
206 (GLDAFRIFL; listed as Homo sapiens) [compound 206]	++++ (≥75% = ++++)
207 (KLFETVEEL; listed as Homo sapiens) [compound 207]	+++ (≥50 = +++)
208 (HLNNDRNPL; listed as Homo sapiens) [compound 208]	++ (≥20% = ++)
210 (GLAGDNIYL; listed as Homo sapiens) [compound 210]	+++ (≥50 = +++)

Substance	Peptide exchange (MHC class I binding score, peptide exchange yield)
211 (LLTTVLINA; listed as Homo sapiens) [compound 211]	+++ (≥50 = +++)
212 (MTLSEIHAV; listed as Homo sapiens) [compound 212]	++ (≥20% = ++)
213 (ILAVDGVLSV; listed as Homo sapiens) [compound 213]	+++ (≥50 = +++)
214 (ALFETLIQL; listed as Homo sapiens) [compound 214]	+++ (≥50 = +++)
215 (QIADIVTSV; listed as Homo sapiens) [compound 215]	++ (≥20% = ++)
216 (ALSTVTPRI; listed as Homo sapiens) [compound 216]	++ (≥20% = ++)
217 (LLWPSSVPA; listed as Homo sapiens) [compound 217]	+++ (≥50 = +++)
218 (SLTGANITV; listed as Homo sapiens) [compound 218]	+++ (≥50 = +++)
219 (GVVPTIQKV; listed as Homo sapiens) [compound 219]	++ (≥20% = ++)
220 (ALSELERVL; listed as Homo sapiens) [compound 220]	+++ (≥50 = +++)
221 (IMLNSVEEI; listed as Homo sapiens) [compound 221]	++ (≥20% = ++)
222 (LLTGVFAQL; listed as Homo sapiens) [compound 222]	++ (≥20% = ++)
223 (ALHPVQFYL; listed as Homo sapiens) [compound 223]	+++ (≥50 = +++)
224 (LLFDWSGTGRADA; listed as Homo sapiens) [compound 224]	+++ (≥50 = +++)
225 (FLPQPVPLSV; listed as Homo sapiens) [compound 225]	+++ (≥50 = +++)
226 (SLAGNLQEL; listed as Homo sapiens) [compound 226]	+++ (≥50 = +++)
227 (SEMEELPSV; listed as Homo sapiens) [compound 227]	+ (≥10% = +)
228 (SLLELDGINLRL; listed as Homo sapiens) [compound 228]	+++ (≥50 = +++)
229 (YLYELEHAL; listed as Homo sapiens) [compound 229]	++ (≥20% = ++)

The remaining lines, values ahead:

Peptide exchange (MHC class I binding score, peptide exchange yield)	Substance
+++ (≥50 = +++)	230 (KLLNMIFSI; listed as Homo sapiens) [compound 230]
+++ (≥50 = +++)	231 (LLDDIFIRL; listed as Homo sapiens) [compound 231]
++++ (≥75% = ++++)	234 (VLLNEILEQV; listed as Homo sapiens) [compound 234]
++ (≥20% = ++)	235 (SLLNQPKAV; listed as Homo sapiens) [compound 235]
+++ (≥50 = +++)	237 (ALLEQTGDMSL; listed as Homo sapiens) [compound 237]
++ (≥20% = ++)	238 (HLQEKLQSL; listed as Homo sapiens) [compound 238]
+++ (≥50 = +++)	239 (VIIKGLEEITV; listed as Homo sapiens) [compound 239]
+++ (≥50 = +++)	241 (KQFEGTVEI; listed as Homo sapiens) [compound 241]
++ (≥20% = ++)	243 (GLAEFQENV; listed as Homo sapiens) [compound 243]
+++ (≥50 = +++)	244 (NVAEIVIHI; listed as Homo sapiens) [compound 244]
++ (≥20% = ++)	245 (ALLEEEEGV; listed as Homo sapiens) [compound 245]
++ (≥20% = ++)	247 (NLLIDDKGTIKL; listed as Homo sapiens) [compound 247]
+++ (≥50 = +++)	248 (VLMQDSRLYL; listed as Homo sapiens) [compound 248]
+++ (≥50 = +++)	249 (YLYQILQGI; listed as Homo sapiens) [compound 249]
+++ (≥50 = +++)	250 (LMQDSRLYL; listed as Homo sapiens) [compound 250]
+++ (≥50 = +++)	251 (LLWGNLPEI; listed as Homo sapiens) [compound 251]
++ (≥20% = ++)	252 (SLMEKNQSL; listed as Homo sapiens) [compound 252]
+++ (≥50 = +++)	253 (KLLAVIHEL; listed as Homo sapiens) [compound 253]
+++ (≥50 = +++)	256 (FLNDIFERI; listed as Homo sapiens) [compound 256]
++ (≥20% = ++)	258 (QLVQRVASV; listed as Homo sapiens) [compound 258]
+ (≥10% = +)	259 (GPGIFPPPPPQP; listed as Homo sapiens) [compound 259]
+++ (≥50 = +++)	261 (GLAALAVHL; listed as Homo sapiens) [compound 261]
+++ (≥50 = +++)	262 (LLLEAVWHL; listed as Homo sapiens) [compound 262]
+++ (≥50 = +++)	265 (FLLDKPQDLSI; listed as Homo sapiens) [compound 265]
++ (≥20% = ++)	266 (FLLDKPQDL; listed as Homo sapiens) [compound 266]
++ (≥20% = ++)	268 (SLDKDIVAL; listed as Homo sapiens) [compound 268]
++++ (≥75% = ++++)	269 (GLLDCPIFL; listed as Homo sapiens) [compound 269]
+++ (≥50 = +++)	270 (TLLTFFHEL; listed as Homo sapiens) [compound 270]
